Measurements published in article PMC6370846.
One block for each substance: values may come before it.

What was measured:
[1] = dual-color fluorescence cross-correlation spectroscopy (FCCS); self-aggregation: Cy5-labelled and Oregon green 488-labelled copies of the same construct mixed in equal volumes (125 µL each) at 536 µM monomer-equivalent, incubated at 310 K with shaking at 250 rpm for up to 24 h; aliquots …; details: other: dual-color fluorescence cross-correlation spectroscopy (FCCS)
[2] = molecular target: α-synuclein tandem octamer (αS-8), C-terminally Cys-tagged, dye-labelled; experiment: dual-color fluorescence cross-correlation spectroscopy (FCCS); self-aggregation: Cy5-labelled and Oregon green 488-labelled copies of the same construct mixed in equal volumes (125 µL each) at 536 µM monomer-equivalent, incubated at 310 K with shaking at 250 rpm for up to 24 h; aliquots diluted in PBS to ~134 pM and measured at 298 K; fractions nrg/nr and nrg/ng fitted to single-exponential growth
[3] = molecular target: α-synuclein tandem dimer (αS-2), C-terminally Cys-tagged, dye-labelled; experiment: as above
[4] = molecular target: α-synuclein tandem tetramer (αS-4), C-terminally Cys-tagged, dye-labelled; experiment: as above
[5] = molecular target: α-synuclein tandem dimer (αS-2), C-terminally Cys-tagged, dye-labelled; experiment: dual-color fluorescence cross-correlation spectroscopy (FCCS); co-aggregation: Cy5-labelled tandem oligomer mixed with Oregon green 488-labelled monomer, equal volumes (125 µL each) at 536 µM monomer-equivalent, 310 K, shaking at 250 rpm, up to 24 h; aliquots diluted in PBS to ~134 pM and measured at 298 K; single-exponential fits
[6] = molecular target: α-synuclein tandem octamer (αS-8), C-terminally Cys-tagged, dye-labelled; experiment: as above
[7] = molecular target: α-synuclein tandem tetramer (αS-4), C-terminally Cys-tagged, dye-labelled; experiment: as above
[8] = molecular target: α-synuclein tandem dimer (αS-2), C-terminally Cys-tagged, dye-labelled; experiment: dual-color fluorescence cross-correlation spectroscopy (FCCS); co-aggregation with swapped fluorophores: Cy5-labelled monomer mixed with Oregon green 488-labelled tandem oligomer, equal volumes (125 µL each) at 536 µM monomer-equivalent, 310 K, shaking at 250 rpm, up to 24 h; aliquots diluted in PBS to ~134 pM and measured at 298 K; single-exponential fits
[9] = molecular target: α-synuclein tandem octamer (αS-8), C-terminally Cys-tagged, dye-labelled; experiment: as above
[10] = molecular target: α-synuclein tandem tetramer (αS-4), C-terminally Cys-tagged, dye-labelled; experiment: as above
[11] = molecular target: α-synuclein monomer (αS-1), C-terminally Cys-tagged, dye-labelled; experiment: dual-color fluorescence cross-correlation spectroscopy (FCCS); self-aggregation: Cy5-labelled and Oregon green 488-labelled copies of the same construct mixed in equal volumes (125 µL each) at 536 µM monomer-equivalent, incubated at 310 K with shaking at 250 rpm for up to 24 h; aliquots diluted in PBS to ~134 pM and measured at 298 K; fractions nrg/nr and nrg/ng fitted to single-exponential growth

Substance: α-synuclein monomer (αS-1), C-terminally Cys-tagged, dye-labelled
- percent incorporated into dual-color aggregates after 24 hr [1]: only ~5% of αS-1 and αS-2
- |A| of nrg/ng (extent, percent of Oregon green-labelled species in dual-color aggregates) [1]: 8%
- |A| of nrg/nr (extent, percent of Cy5-labelled species in dual-color aggregates) [1]: 6%

Substance: α-synuclein tandem octamer (αS-8), C-terminally Cys-tagged, dye-labelled
- percent incorporated into dual-color aggregates after 24 hr [1]: ~35% of Cy5-labelled αS-8
- |A| of nrg/ng (extent, percent of Oregon green-labelled species in dual-color aggregates) [1]: 26%
- |A| of nrg/nr (extent, percent of Cy5-labelled species in dual-color aggregates) [1]: 29%
- k of nrg/ng (rate of exponential growth of aggregation) [2]: 0.06 h⁻¹
- k of nrg/nr (rate of exponential growth of aggregation) [2]: 0.15 h⁻¹

Substance: α-synuclein monomer (αS-1), C-terminally Cys-tagged, dye-labelled (natural protein)
- k of nrg/ng (rate of exponential growth of co-aggregation) [5]: 0.4 h⁻¹
- k of nrg/nr (rate of exponential growth of co-aggregation) [5]: 0.11 h⁻¹
- |A| of nrg/ng (extent, percent of Oregon green-labelled αS-1 in dual-color co-aggregates) [5]: 1.7%
- |A| of nrg/nr (extent, percent of Cy5-labelled αS-2 in dual-color co-aggregates) [5]: 4%
- k of nrg/ng (rate of exponential growth of co-aggregation) [6]: 0.4 h⁻¹
- k of nrg/nr (rate of exponential growth of co-aggregation) [6]: 0.12 h⁻¹
- |A| of nrg/ng (extent, percent of Oregon green-labelled αS-1 in dual-color co-aggregates) [6]: 1%
- |A| of nrg/nr (extent, percent of Cy5-labelled αS-8 in dual-color co-aggregates) [6]: 40%
- k of nrg/ng (rate of exponential growth of co-aggregation) [7]: 0.8 h⁻¹
- k of nrg/nr (rate of exponential growth of co-aggregation) [7]: 0.23 h⁻¹
- |A| of nrg/ng (extent, percent of Oregon green-labelled αS-1 in dual-color co-aggregates) [7]: 2%
- |A| of nrg/nr (extent, percent of Cy5-labelled αS-4 in dual-color co-aggregates) [7]: 11%
- k of nrg/ng (rate of exponential growth of co-aggregation) [8]: 0.2 h⁻¹
- k of nrg/nr (rate of exponential growth of co-aggregation) [8]: 0.2 h⁻¹
- |A| of nrg/ng (extent, percent of Oregon green-labelled αS-2 in dual-color co-aggregates) [8]: 4%
- |A| of nrg/nr (extent, percent of Cy5-labelled αS-1 in dual-color co-aggregates) [8]: 5%
- k of nrg/ng (rate of exponential growth of co-aggregation) [9]: 0.2 h⁻¹
- k of nrg/nr (rate of exponential growth of co-aggregation) [9]: 0.05 h⁻¹
- |A| of nrg/ng (extent, percent of Oregon green-labelled αS-8 in dual-color co-aggregates) [9]: 11%
- |A| of nrg/nr (extent, percent of Cy5-labelled αS-1 in dual-color co-aggregates) [9]: 4%
- k of nrg/ng (rate of exponential growth of co-aggregation) [10]: 0.5 h⁻¹
- k of nrg/nr (rate of exponential growth of co-aggregation) [10]: 2 h⁻¹
- |A| of nrg/ng (extent, percent of Oregon green-labelled αS-4 in dual-color co-aggregates) [10]: 20%
- |A| of nrg/nr (extent, percent of Cy5-labelled αS-1 in dual-color co-aggregates) [10]: 1%
- k of nrg/ng (rate of exponential growth of aggregation) [11]: 0.035 h⁻¹
- k of nrg/nr (rate of exponential growth of aggregation) [11]: 0.043 h⁻¹

More lines, main results first:

- k of nrg/ng (rate of exponential growth of aggregation) [3]: 0.2 h⁻¹
- k of nrg/nr (rate of exponential growth of aggregation) [3]: 0.23 h⁻¹
Substance: α-synuclein tandem dimer (αS-2), C-terminally Cys-tagged, dye-labelled
- percent incorporated into dual-color aggregates after 24 hr [1]: only ~5% of αS-1 and αS-2
- |A| of nrg/ng (extent, percent of Oregon green-labelled species in dual-color aggregates) [1]: 4%
- |A| of nrg/nr (extent, percent of Cy5-labelled species in dual-color aggregates) [1]: 5%

- k of nrg/ng (rate of exponential growth of aggregation) [4]: 0.18 h⁻¹
- k of nrg/nr (rate of exponential growth of aggregation) [4]: 0.17 h⁻¹
Substance: α-synuclein tandem tetramer (αS-4), C-terminally Cys-tagged, dye-labelled
- percent incorporated into dual-color aggregates after 24 hr [1]: ~15% of Cy5-labelled αS-4
- |A| of nrg/ng (extent, percent of Oregon green-labelled species in dual-color aggregates) [1]: 17%
- |A| of nrg/nr (extent, percent of Cy5-labelled species in dual-color aggregates) [1]: 14%
